Laboratory results reported in paper PMC3031960 (Journal of immunology (Baltimore, Md. : 1950), 2010).
Numbered stars: 1 amine (or outer) side, 2 acyl side, 3 side chain; on linkers, the order of the positions; unused ones are H or OH. Square brackets hold non-standard residues; d marks the D form. Ends that are not written are not given here. K(Palm) = CCCCCCCCCCCCCCCC(=O)NCCCC[C@H](N[*:1])C(=O)[*:2]; pY = N[C@@H](Cc1ccc(OP(=O)(O)O)cc1)C(=O)O

T1: pJAK2(1001–1013)
T1 peptide: {K(Palm)}-LPQDKE[pY]YKVKEP


Target: T1, pJAK2(1001–1013)
Assay: ELISA

| Binder | binding result |
| --- | --- |
| {K(Palm)}-DTHFRTFRSHSDYRRI [SOCS1-KIR] | binds |
| {K(Palm)}-LRLKTFSSKSEYQLVV [SOCS3-KIR] | binds |
